Results reported in patent publication US20100158902A1 (ONO PHARMACEUTICAL, published 2010).

How the values were obtained:
monomeric SDF-1 [1] = molecular target: T1, monomeric SDF-1 (human, UniProt P48061 22-89); assay: SPR (Biacore), low density of SDF-1 covalently attached to CM5 chip, analyte at 10-50 nM
T1 construct: also called monomeric form of SDF-1; SDF-1 at low density on a CM5 chip

[2] = molecular target: T2, recombinant human SDF-1α (Peprotech) (human, UniProt P48061 22-89); assay: SPR (Biacore), antibody amine-coupled to CM5 chip, SDF-1 flowed at 5-40 nM right after dilution to maximize the dimer population, 1:1 Langmuir fit
T2 construct: Bought protein (Peprotech, cat. 300-28A); also called rh SDF-1α; Stromal cell-Derived Factor-1
Method: The antigen-antibody association kinetics was followed for 2 minutes and the dissociation kinetics was followed for 8 minutes. The association and dissociation curves were fit to a 1:1 Langmuir binding model using BIAevaluation software (Biacore AB).

monomeric SDF-1 [3] = molecular target: T1, monomeric SDF-1; assay: SPR (Biacore), low density of SDF-1 covalently attached to CM5 chip, analyte at 100-500 nM
[4] = molecular target: T2, recombinant human SDF-1α (Peprotech); assay: cell-based or functional assay
[5] = molecular target: T2, recombinant human SDF-1α (Peprotech); assay: radio-labeled ligand binding assay: the antibody blocks binding of 100 pM 125I-SDF-1α to HuVEC cells (GAGs, no CXCR4); unit taken from the axis 'Ab conc in nM'
Excerpt: (§1) An irrelevant antibody with the same isotype was used as a negative control.

[6] = molecular target: T2, recombinant human SDF-1α (Peprotech); assay: radio-labeled ligand binding assay: the antibody blocks binding of 100 pM 125I-SDF-1 to CEM cells; unit taken from the axis 'Ab in nM'
Excerpt: as §1

T2 sequence (P48061 22-89 limits assumed): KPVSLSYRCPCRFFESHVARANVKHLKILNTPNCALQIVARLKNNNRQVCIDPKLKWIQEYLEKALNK
T1 sequence (P48061 22-89 limits assumed): as above

Row | Binder | Kd (monomeric SDF-1 [1]) [pM] | koff (monomeric SDF-1 [1]) [s⁻¹] | kon (monomeric SDF-1 [1]) [M⁻¹ s⁻¹] | Kd [2] [pM] | koff [2] [s⁻¹] | kon [2] [M⁻¹ s⁻¹] | Kd (monomeric SDF-1 [3]) [pM] | koff (monomeric SDF-1 [3]) [s⁻¹] | kon (monomeric SDF-1 [3]) [M⁻¹ s⁻¹] | EC50, inhibition of SDF-1α (5 nM)-induced migration of CEM cells (Fluorescent Units) [4] [pM] | EC50 [5] [pM] | EC50 [6] [pM]
1 | 1C6 human monoclonal antibody (antibody, V domains shown, Whole human monoclonal antibody with kappa light chain (VK L18), from a HuMAb Mouse; also called Z1/C6; mAb Z group antibody) VH: EVQLVESGRGLVQPGGSLRLSCAASGFTFSSYWMSWVRQAPGKGLEWVANMNQDGSEKYYVDSVKGRFTISRDNAKNSLYLQMNSLRAEDTAVYYCARDLTGPYYYDYYGMDVWGQGTTVTVSS VL: AIRMTQSPSSVSASVGDRVTITCRASQGISSALAWYQQTPGKAPKLLIYDASSLESGVPSRFSGSGSGTDFTLTISSLQPEDFATYYCQQFNSYPRTFGQGTKVEIK | 3600 | 0.0004 | 110000 | 460 | 0.00064 | 1.4e+06 |  |  |  |  |  | 
2 | 1D3 human monoclonal antibody (antibody, V domains shown, Whole human monoclonal antibody with kappa light chain (VK L18), from a KM Mouse; also called B1/D3; mAb B group antibody) VH: EVQLVQSGAEVKKPGASVKVSCKVSGYTLTKLSVHWVRQAPGKGLEWMGSFDPEDGETIYSQRFQGRVTMTEDTSTDTAYMELTSLRSEDTAVYYCATEGQWLVAYYGMDVWGQGTTVTVSS VL: EIVLTQSPSSLSASVGDRVTITCRASQGISSALAWYQQKPGKAPKLLIYDASSLESGVPSRFSGSGSGTDFTLTISSLQPEDFATYYCQQFNSYPLTFGGGTKVEIK |  |  |  | 630 | 0.0005 | 800000 | 151000 | 0.0017 | 11000 |  |  | 

Second part, the binder after the results:

Row | Kd (monomeric SDF-1 [1]) [pM] | koff (monomeric SDF-1 [1]) [s⁻¹] | kon (monomeric SDF-1 [1]) [M⁻¹ s⁻¹] | Kd [2] [pM] | koff [2] [s⁻¹] | kon [2] [M⁻¹ s⁻¹] | Kd (monomeric SDF-1 [3]) [pM] | koff (monomeric SDF-1 [3]) [s⁻¹] | kon (monomeric SDF-1 [3]) [M⁻¹ s⁻¹] | EC50, inhibition of SDF-1α (5 nM)-induced migration of CEM cells (Fluorescent Units) [4] [pM] | EC50 [5] [pM] | EC50 [6] [pM] | Binder
3 | 4600 | 0.00045 | 96000 | 370 | 0.0011 | 2.9e+06 |  |  |  | 543 | 63.7 | 347 | 2A5 human monoclonal antibody (antibody, V domains shown, Whole human monoclonal antibody with kappa light chain (VK L18), from a HuMAb Mouse; also called Z2/A5; Z2A5) VH: QVQLVQSGGGLVQPGGSLRLSCAASGFTFSSYWMSWVRQAPGKGLEWVANMNQDGSEKYYVDSVKGRFTISRDNAKNSLYLQMNSLRAEDTAVYYCARDLTGPYYYDYYGMDVWGQGTTVTVSS VL: DIQMIQSPSSLSASVGDRVTITCRASQGISSALAWYQQKPGKAPKLLIYDASSLESGVPSRFSGSGSGTDFTLTISSLQPEDFATYYCQQFNSYPRTFGQGTKVEIK
4 |  |  |  | 1320 | 0.00084 | 600000 | 176000 | 0.0016 | 9100 | 498 | 13 | 117 | 1H2 human monoclonal antibody (antibody, V domains shown, Whole human monoclonal antibody with kappa light chain (VK L18), from a KM Mouse; also called B1/H2; B1H2) VH: QVQLVQSGAEVKKPGASVKVSCKVSGYTFTKLSVHWVRQAPGKGLEWMGSFDPEDGETIYSQRFQGRVTMTEDTSTDTAYMELSSLRSEDTAVYYCATEGQWLVAYYGMDVWGQGTMVTVSS VL: EIVLTQSPSSLSASVGDRVTITCRASQGISSALAWYQQKPGKAPKLLIYDASSLESGVPSRFSGSGSGTDFTLTISSLQPEDFATYYCQQFNSYPLTFGGGTKVEIK
